Experimental data: the supplement of paper PMC9732359
± gives the uncertainty stated by the source.

Experiment: protein stability index of a GFP-peptide fusion (yeast GPS) (PSI 1-4); higher = more stable; sorted into four equal gates, so the index is relative within each strain
Outline: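 Plasmids in a pooled yeast library fused tiled 17-residue yeast protein peptides downstream of GFP and also expressed Cherry. Mid-log cultures grown without leucine were sorted into four equal gates by GFP/Cherry fluorescence ratio. Each gate's plasmids were PCR-amplified and Illumina-sequenced, and reads were matched to strains by barcodes. The protein stability index is derived by multiplying each gate's read frequency by its gate number and summing the results.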

Sequence | protein stability index (pdr5∆) | protein stability index (ubr1∆) | protein stability index (doa10∆) | protein stability index (san1∆)
TKENGDFTLPEDFAPLL [PRP8] | 2.78 ± 0.18 | 3.2 ± 0.1 |  | 
TKESQPTIEEDLTRVYK [FAS2] | 3.32 ± 0.094 | 3.48 ± 0.091 | 3.46 ± 0.12 | 3.2 ± 0.07
TKFQTTDRESYPRLQDP [YCS4] | 3.15 ± 0.055 | 3.05 ± 0.074 | 3 ± 0.072 | 3.13 ± 0.079
TKIGAKRIHSVRTRGGN [RPS8A] | 3.05 ± 0.11 | 2.72 ± 0.12 | 2.84 ± 0.15 | 2.93 ± 0.088
TKIPQIGDKFASRHGQK [RPB2] | 2.3 ± 0.07 | 1.83 ± 0.039 | 1.57 ± 0.073 | 2.77 ± 0.084
TKNGTPNPNNMKTVQSP [GAL11] | 2.92 ± 0.081 | 2.91 ± 0.066 | 2.96 ± 0.086 | 2.77 ± 0.062
TKNLSILTSKVNAIKNE [DSN1] | 2.13 ± 0.056 | 1.69 ± 0.06 | 1.66 ± 0.076 | 2.39 ± 0.11
TKPGVYYVPYSKLMPVL [RPC82] | 1.59 ± 0.049 | 1.96 ± 0.09 | 1.54 ± 0.059 | 1.91 ± 0.067
TKSHNTVQSWLCDLFVN [NUT1] | 1.46 ± 0.044 | 1.54 ± 0.037 | 1.55 ± 0.036 | 1.4 ± 0.09
TKSMVKIAEQYSKRIEE [RPN11] | 1.94 ± 0.052 | 2.28 ± 0.067 | 2.32 ± 0.075 | 2.03 ± 0.1
TLAEVKAAGLTAAYART [RPL13A] | 1.89 ± 0.097 | 1.54 ± 0.061 | 1.38 ± 0.11 | 1.5 ± 0.12
TLDKPNAEATKEEFSSA [CSE2] | 3.12 ± 0.1 | 3.13 ± 0.069 | 2.99 ± 0.11 | 3.23 ± 0.064
TLDRNTAAETFKLFNKY [RPL8A] | 3.19 ± 0.068 | 2.94 ± 0.066 | 3.03 ± 0.088 | 3.08 ± 0.082
TLELESFLEGSKALNSI [RGR1] | 2.16 ± 0.067 | 2.9 ± 0.078 | 2.54 ± 0.066 | 3.13 ± 0.066
TLIKKKQDEKKSSELEL [SMC2] | 3.37 ± 0.071 | 3.05 ± 0.046 | 3.24 ± 0.076 | 3.29 ± 0.047
TLIVNTDVEKSDPAAKK [SRP21] | 3.13 ± 0.3 | 3.7 ± 0.16 |  | 
TLKDYQIKGLQWMVSLF [SNF2] | 2.54 ± 0.11 | 2.76 ± 0.1 | 3.01 ± 0.1 | 3.22 ± 0.078
TLKLRARQRGKLKKSEE [SRP68] | 3.27 ± 0.11 | 3.67 ± 0.21 | 3.44 ± 0.15 | 3.36 ± 0.067
TLLARAVAHHTDCKFIR [RPT6] | 3.03 ± 0.076 | 2.23 ± 0.15 | 3.09 ± 0.11 | 1.86 ± 0.14
TLLESNLCKIIEPFECV [RPN6] | 2.81 ± 0.12 | 2.88 ± 0.16 | 2.26 ± 0.085 | 2.28 ± 0.12
TLLNFVSNNVLRRLEIL [ECM29] | 1.92 ± 0.29 | 2.48 ± 0.12 | 1.63 ± 0.1 | 2.28 ± 0.19
TLQDIGFYQIKKIVDSK [YMR129W/POM152] | 2.68 ± 0.1 | 2.97 ± 0.12 | 2.64 ± 0.095 | 2.89 ± 0.17

Sequence | protein stability index (pdr5∆) | protein stability index (ubr1∆) | protein stability index (doa10∆) | protein stability index (san1∆)
TLTELKDALSNSILSVR [SRB2] | 3.38 ± 0.082 | 3.37 ± 0.09 | 3.29 ± 0.068 | 3.21 ± 0.049
TMEVKSFPILDQCVGQV [YMR129W/POM152] | 3.08 ± 0.11 | 2.69 ± 0.06 | 2.19 ± 0.09 | 2.34 ± 0.13
TNAKLPNVDLVTALEVL [RGR1] | 2.28 ± 0.052 | 2.26 ± 0.061 | 2.09 ± 0.089 | 2.44 ± 0.07
TNDRLNREAATKEVESN [DIS3] | 2.58 ± 0.096 | 3.1 ± 0.1 | 2.79 ± 0.14 | 2.62 ± 0.12
TNRHTLALETVLIKMVK [SIR3] | 2.86 ± 0.072 | 2.88 ± 0.054 | 2.84 ± 0.11 | 2.61 ± 0.069
TNSPQISVTRQVVLGGT [SMC2] | 3 ± 0.075 | 2.67 ± 0.048 | 2.82 ± 0.078 | 3.03 ± 0.064
TNTSKQFQKARNNVMLL [SRB8] | 3 ± 0.066 | 2.92 ± 0.083 | 2.65 ± 0.14 | 2.94 ± 0.06
TPATIVKKPTFTFGQST [YOR098C/NUP1] | 3.13 ± 0.074 | 3.43 ± 0.075 | 2.84 ± 0.066 | 3.09 ± 0.058
TPDANLISKPAKKNNFI [UBP6] | 3.05 ± 0.1 | 3.21 ± 0.12 | 3.12 ± 0.16 | 3.15 ± 0.12
TPDASKPSFSFGVPNSS [YLR335W/NUP2] | 3.14 ± 0.086 | 2.94 ± 0.072 | 2.92 ± 0.088 | 3.07 ± 0.068
TPDDDEIDVENHDRINI [RPN8] | 3.5 ± 0.25 | 2.68 ± 0.16 | 3.37 ± 0.26 | 2.75 ± 0.17
TPGLTFNAIDLARHLPA [RPC82] | 2.73 ± 0.061 | 3.21 ± 0.075 | 2.71 ± 0.069 | 2.77 ± 0.056
TPIAGRFTPGSFTNYIT [RPS0A] | 2.99 ± 0.072 | 3.16 ± 0.1 | 3.01 ± 0.11 | 2.97 ± 0.082
TPLSIKIMVAEWYLSHL [SRB8] | 2.59 ± 0.095 | 2.5 ± 0.063 | 2.83 ± 0.084 | 2.18 ± 0.092
TPSFSFGKTTANLPANS [YLR335W/NUP2] | 2.96 ± 0.1 | 3.19 ± 0.054 | 2.84 ± 0.069 | 3.01 ± 0.13
TPSNIRSLCEVLVYDDK [RPC34] | 1.84 ± 0.078 | 1.59 ± 0.086 | 1.7 ± 0.077 | 1.26 ± 0.11
TQAAEFLSPYISTHLKT [IRR1] | 2.32 ± 0.059 | 2.21 ± 0.043 | 1.96 ± 0.039 | 2.03 ± 0.073
TQHEEEEEQDTGESEES [IRR1] | 3.29 ± 0.1 | 3.39 ± 0.15 |  | 3.26 ± 0.092
TQLQICLDQMTEQFCAT [SRB7] | 2.88 ± 0.065 | 2.52 ± 0.052 | 2.74 ± 0.063 | 2.54 ± 0.08
TQPKATSTGTTIVGVKF [PUP1] | 3.52 ± 0.1 | 3.03 ± 0.091 | 3.48 ± 0.12 | 3.28 ± 0.1
TQQAVNLEKNYLAKLSK [IRR1] | 3.34 ± 0.23 | 2.91 ± 0.14 | 3.06 ± 0.27 | 
TQRIMTNVIAFAFWNLL [YLR018C/POM34] | 2.13 ± 0.058 | 1.58 ± 0.027 | 1.81 ± 0.069 | 1.74 ± 0.16
